The text below walks through data of a protein production outcome set (Wang et al. 2014).

This series in a line: label from the status in PepcDB records.
For “MSAPRLPVTVLTGFLGAGKTTLLSKLLENNKQRRLAILVNEFGEVSIDGGLLRDGENQGVEIHDLANGLVAYDDDADFLPTMLALWQRRQQIDHVLIETSGLALPSAVMAQLQSEALAPYFVLDATLAVVDTPLLLAGHFAPAGDGGKTDAVAALFDQQLGHADIVVLNKIDALSADQLLAAEEAVRKQAPSIRFIELAYEAKLDTRLTLGLHLHEASPAAHRHYGPVASMPGLAMRPLANQTLLDGHSHGGQAAHSHGLATHKHFHEQDPGWQSFMIRSKEPQCADKLAAALQAIAREEPLLRIKGFAACADSPGRLLAQGVRSRIELSRDDTLAAPRQAQLVFIGYHPSRPRVVALLRDITGAHWSLEHHHHHH”, the protein production result is recorded as “failed”.
The result for “MTIAILSTGDEIIHGDTLNTNAHYIAHALCSEGLPLGLQVACSDKENEIIDSLNFLTQHHDILILIGGLGPTKDDITRFALAKFTKEPLLQHADALDHIEKKANIAKISLNQGNLQQCLFPANARLFPNPYGTAMGCSYSWKGKVFILLPGPPRECLPMFNQDVLPLLLQTSRHSNK” reads “not failed”; that for “MQERIKACFTESIQTQIAAAEALPDAISRAAMTLVQSLLNGNKILCCGNGTSAANAQHFAASMINRFETERPSLPAIALNTDNVVLTAIANDRLHDEVYAKQVRALGHAGDVLLAISTRGNSRDIVKAVEAAVTRDMTIVALTGYDGGELAGLLGPQDVEIRIPSHRSARIQEMHMLTVNCLCDLIDNTLFPHQDD”, “not failed”.
The value for “MHTAICDELGIEFPIFAFTHCRDVVVAVSKAGGFGVLGAVGFTPEQLEIELNWIDEHIGDHPYGVDIVIPNKYEGMDSQLSADELAKTLRSMVPQEHLDFARKILADHGVPVEDADEDSLQLLGWTEATATPQVDAALKHPKMTMVANALGTPPADMIKHIHDSGRKVAALCGSPSQARKHADAGVDIIIAQGGEAGGHCGEVGSIVLWPQVVKEVAPVPVLAAGGIGSGQQIAAALALGTQGAWTGSQWLMVEEAANTAVQQAAYVKATSRDTVRSRSFTGKPARMLRNDWTEAWEQPESPKPLGMPLQYMVSGMAVKATHKYPNETVDVAFNPVGQVVGQFTKVEKTATVIERWVQEYLEATARLDALNAAASV” was “failed”; that for “MKIIGIIQARTGSKRLKNKVLLKLGDRCILEILLERLKKSKKLDDIIVATTIKKEDNAIVELCNSLGVNVFRGSEKDVLDRFYNASKFYSGDVIVRITGDNPLTSIELIDKQVEYLLKNNFDYVSTKNIILGLSSEVFTFDALEKAWKNAKEKYQREHVTPYIYENPNLFKVFYLEPPEYLKREGIRLTIDTIKDFKLYLELQKHFDLINVDIRQIIDFLDKNPQIKNINSNVRQKSYREVEE” was “failed”; that for “MANLPTVLVTGASGRTGQIVYKKLKEGSDKFVAKGLVRSAQGKEKIGGEADVFIGDITDADSINPAFQGIDALVILTSAVPKMKPGFDPTKGGRPEFIFEDGQYPEQVDWIGQKNQIDAAKVAGVKHIVVVGSMGGTNPDHPLNKLGNGNILVWKRKAEQYLADSGTPYTIIRAGGLLDKEGGVRELLVGKDDELLQTDTKTVPRADVAEVCIQALLFEEAKNKAFDLGSKPEGTSTPTKDFKALFSQVTSRF” was “not failed”.
The value for “MAPTFSPNPQNFTKKDKTKAERRKPEEGDDDHHHNASQLFLNPWQTRAARCRSLANGMLMTLHQLRGLLLSSTKLETRRKEVENLTHQGKMNLDIIKMGKFLRNPPKNGFAVYAQNKWRGVCLGRSFIYI” was “failed”.
With “MGIGFKGRKTLLRELVKYMVTLCISLVVLALLYIFINTIAMNTGFSHPANYNEREAEKLAPKLETIDKVTADMIPDTMSYAILNKETKQKTAGTIKEKDLQLVKKKIEKKPYVNYKQKGYLVIERNNEYCVLQYSLRADFSSPLLRKYLPNYELTSICILIILLIIVISIITTYFANRLRKHFETLNVITRYIKEQNLQFTPEFTHIKEFDDVIDSLIEMRDALQSSLEALWRLEKNKKEQIGALAHEIKIPITIIKGNAELLSLSMQNEEQAEYTKYILGAGNQIEQYIYQLIHLSKTEDALTIHLEKASVDELTETLVKDISAYKGNKNINISFKKENLMKEAKIDWQLLHRALLNILTNAVDYTPEGGTVSVHAESILRYFIFL”, the protein production result is “failed”.
Turning to “MGSPKVEDTLISDAQIEEAKQDGTTTAVYVIARNSGEFADRLDAEGDYQLWSNEEENLKKVVANFDNVIVVLNVGGIIDTKFFHEIEGLDSLLLMSQAGMRGGDAVVKVLNGEVTPSGKLTDTWAVNYEDYSSSETFGKNDVNTTQEDYTDDIYVGYRYFDTFNVTPAYEFGYGLSYTDFNIDVKDVTVDEENVTVDVKVTNVGKQYSGKEVVEVYFSAPDGALEKPYQELATYGKTDTLAPGESQTLTLSYATTEMSAYSEDLAAYVMEDGDYLVRVGNSSRNTSVEAVINLDSNKVTEQLSNQMVQDEEIDTLSNEGATPYTYEGEAEEIAKAERFELDANAIETVNNASEYDDESVISYVYEGSDYTVVDQEANPRYTKAPSGNNTTPSQLIEPYEETIQYVEKTKENPTLLDVYQGTVTMEELLASLSVEEMSNIVEGLGWGGGSEPIIGAQANSVKGAAGETTSKYYETRAIPNTVLADGPAGIRITQSYEEDGTTYYQYCTAFPIGTLIAQSWDKDVAKQFGEAIGEEMLEMGVTMWLAPGMNIHRNPLCGRNFEYYSEDPLVAGVTAASTTLGVQSHEGIGVTLKHYAANNQEDNRNAVNNTITERALREIYLKGFEIAVKTANPMALMTCYNLNNAMPGADDYDLCTDIPRGEWGFNGLIMTDWGGGQSTPVNSMHAGNDLIMPGGSSKSIAEATGVTLPLGDLQKATRNVLNVIMDSTQFKKIGVENGVEVEIGKFTESAGLGLFLDVTKSEVTSVNKTALQIAVDVASNIADEELENVVPAVANELKAALEEAKAILEDATAEQETVDASFDRLATAIQMLDFIKGDKAALRSFITKVENTVEEEYTPATWTAFAAALGTGNTVLANENAMQEEVDNAYTNLVKAYLNLRLVPNKDKLEDLINQTKALVAANYTADTWKNVSDALVLAENVMSNENATSEEVANAETVLTKAVEGLVVNNTPVTPSTPAVDNTVDSTVKTPVNSGDTTASVKTGDESLTGLFGGITLLSLAGAVLLKRKEN”, the protein production result was “failed”.
“AGNETVTEGFKEGQVGSSAMPHKMNARSCERVGGLQVILRGYLTMVADLSGQQWNEGDVFCSVIRRVALPDAFFALDGMYETFLTVLAEFGAFPAMIDRELERYLPFLATTRILMAAVRVGVGRETAHEVIKENAVAVALNMRENGGEQDLIDRLAADERLPMTREQLDEALADRHAFIGAAESQVARVVDRVNDLVRRYPAAAQYTPGDIL”: the protein production result is on record as “failed”.
The value for “MEKISDLIECIAYEKNLPKEMISKVIQGCLLKMAQNELDPLARYLVVEENKQLQLIQLVEVLEDGDERLVNDPSKYISLSKAKEMDPSVKIKDELSYSLSLESMKQGAINRLFKDLQYQLEKALEDSHFEAFQKRLNSVLMGQVILVDHNQNTFIEIEQQFQGVLSMRHRIKGESFKVGDSIKAVLTQVKRTKKGLLLELSRTTPKMLEALLELEVPEIKDKEIEIIHCARIPGNRAKVSFFSHNARIDPIGAAVGVKGVRINAISNELNKENIDCIEYSNVPEIYITLALAPAKILSVEIKKIPIEELNAEEKESIQERFIVNNHLQKAKVRLLDIEKSKAIGKGGVNVCLASMLTGYHIEFETIPSVKENAENESEKETPKVGVEALESLFKNLEHHHHHH” was “not failed”.
The result for “MLISALIVMVITYCLIISRSITKIPPWASMFFGGILMVILGIISPEEALQSINLDVILFLITLFTFASALEVSGFLKFLAYKIIEKFKEPRKVLFYILLYSGLLSNLVTNDGVSASWTPVILELSRMIGVSEVPFLYALAVGVTIGSVIMPTGNPQNLLIALESGIKNPFITFTIYLTLPSIISLIIAYFILFRLFRKSLSLPSGINIKKEEEEKVDFDRRLGYLTLTLLVVTIILFFSLSFFKIDILLGSLVTSSILLLLTEKRRDIVRRMDWPTILFFIGLFIFTDGVLKSGIIQYLSNFLPPPDSVASIMIVSILLSQVLSNVPLVAIYIPIMISHSGITVVDWLALAAGSTIAGNFTILGAASNVIISEASESRGGKGFNFVEFMKYTIPILIPNAIIIYLFLVLFR” reads “failed”; that for “GDDEIAMLGRYFNQMTRQLKGQRDTLLENTHQIERRRRLFDSVLSSVTSGVVGLDSQGKVTFVNRSAERLLDWSGDEQSLDLAVAVPEFVSLFESLVAAGQETVQAEIKVTRKGQLENLLVRMSTRRGEDDTLEGYVIAFDD”, “failed”.
